Measurements: publication PMC5699047 (Proceedings of the National Academy of Sciences of the …, 2017)

Biological target: T1, MBP-COP1 (Arabidopsis, UniProt P43254 1-675)
T1 sequence (looked up): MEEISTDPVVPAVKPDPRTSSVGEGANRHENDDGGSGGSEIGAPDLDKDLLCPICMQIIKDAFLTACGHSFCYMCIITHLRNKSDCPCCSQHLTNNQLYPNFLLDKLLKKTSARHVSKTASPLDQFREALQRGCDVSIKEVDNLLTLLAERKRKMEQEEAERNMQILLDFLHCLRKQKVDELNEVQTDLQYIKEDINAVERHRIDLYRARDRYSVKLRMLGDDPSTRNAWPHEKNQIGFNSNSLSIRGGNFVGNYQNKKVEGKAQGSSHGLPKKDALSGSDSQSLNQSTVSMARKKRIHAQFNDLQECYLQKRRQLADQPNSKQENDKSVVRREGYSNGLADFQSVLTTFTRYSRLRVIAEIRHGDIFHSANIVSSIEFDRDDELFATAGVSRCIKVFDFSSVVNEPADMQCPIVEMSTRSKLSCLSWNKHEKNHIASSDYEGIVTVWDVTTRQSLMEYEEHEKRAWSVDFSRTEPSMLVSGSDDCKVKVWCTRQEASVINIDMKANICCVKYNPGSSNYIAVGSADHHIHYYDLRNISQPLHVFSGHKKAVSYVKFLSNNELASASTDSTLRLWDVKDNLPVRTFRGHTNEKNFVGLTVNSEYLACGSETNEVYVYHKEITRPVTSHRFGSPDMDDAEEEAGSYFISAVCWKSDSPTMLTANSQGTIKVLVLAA
Assay: pull-down

binding result: binds
B1: GST-WDL3 (natural protein)
chain: not shown
